In US20210340217A1, “NOVEL PEPTIDES AND COMBINATION OF PEPTIDES FOR USE IN IMMUNOTHERAPY AGAINST OVARIAN CANCER AND OTHER CANCERS” (Immatics Biotechnologies GmbH, priority 2017, published 2021):

Target: HLA-B*44:02 (Homo sapiens, UniProt P01889, A223V/A65T/A93T/A95T/D201E/D98Y/E176V/E187L/E204Q/E69K/G107R/H137Y/K202T/L105A/L119I/N104T/N87E/Q56L/Q94N/R106L/R155S/R180D/S101N/S121R/S35A/S48T/T118I/V36M/W191S/Y140D/Y91S)
Test: MHC binding assay (UV-ligand exchange, beta2m ELISA)
Details: peptide exchange yield
How it was run: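 Peptide–MHC complexes formed by UV-induced exchange of a UV-cleavable peptide for the test peptide. Exchange yield measured by streptavidin-capture ELISA detecting β2m (HRP anti-β2m, TMB, A450) on 100-fold diluted samples. Quantified against refolded HLA-A*02:01/MLA-001 standards (15-500 ng/ml).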

Substance	Peptide exchange
188 (AEFAKKQPWW; listed as Homo sapiens) [compound 188]	“+++” (>50 = +++)
189 (KEFLFNMY; listed as Homo sapiens) [compound 189]	“++” (>20% = ++)
190 (YEVARILNL; listed as Homo sapiens) [compound 190]	“++” (>20% = ++)
191 (EEDAALFKAW; listed as Homo sapiens) [compound 191]	“+++” (>50 = +++)
192 (YEFKFPNRL; listed as Homo sapiens) [compound 192]	“+++” (>50 = +++)
193 (LEAQQEAL; listed as Homo sapiens) [compound 193]	“++” (>20% = ++)
194 (KEVDPTSHSY; listed as Homo sapiens) [compound 194]	“++” (>20% = ++)
195 (AEDKRHYSV; listed as Homo sapiens) [compound 195]	“++” (>20% = ++)
196 (REMPGGPVW; listed as Homo sapiens) [compound 196]	“+++” (>50 = +++)
197 (AEVLLPRLV; listed as Homo sapiens) [compound 197]	“+++” (>50 = +++)
198 (QEAARAAL; listed as Homo sapiens) [compound 198]	“++” (>20% = ++)
199 (REIDESLIFY; listed as Homo sapiens) [compound 199]	“+++” (>50 = +++)
200 (AESIPTVSF; listed as Homo sapiens) [compound 200]	“+++” (>50 = +++)
201 (AETILTFHAF; listed as Homo sapiens) [compound 201]	“+++” (>50 = +++)
202 (HESEATASW; listed as Homo sapiens) [compound 202]	“+++” (>50 = +++)
203 (IEHSTQAQDTL; listed as Homo sapiens) [compound 203]	“++” (>20% = ++)

Substance	Peptide exchange
204 (RETSTSEETSL; listed as Homo sapiens) [compound 204]	“+++” (>50 = +++)
205 (SEITRIEM; listed as Homo sapiens) [compound 205]	“++” (>20% = ++)
206 (SESVTSRTSY; listed as Homo sapiens) [compound 206]	“+++” (>50 = +++)
207 (TEARATSDSW; listed as Homo sapiens) [compound 207]	“+++” (>50 = +++)
208 (TEVSRTEAI; listed as Homo sapiens) [compound 208]	“++” (>20% = ++)
209 (TEVSRTEL; listed as Homo sapiens) [compound 209]	“++” (>20% = ++)
210 (VEAADIFQNF; listed as Homo sapiens) [compound 210]	“+++” (>50 = +++)
211 (EEKVFPSPLW; listed as Homo sapiens) [compound 211]	“+++” (>50 = +++)
212 (MEQKQLQKRF; listed as Homo sapiens) [compound 212]	“+++” (>50 = +++)
213 (KESIPRWYY; listed as Homo sapiens) [compound 213]	“++” (>20% = ++)
214 (VEQTRAGSLL; listed as Homo sapiens) [compound 214]	“++” (>20% = ++)
215 (SEDGLPEGIHL; listed as Homo sapiens) [compound 215]	“++” (>20% = ++)
396 (REASGLLSL; listed as Homo sapiens) [compound 396]	“+++” (>50 = +++)
397 (REGDTVQLL; listed as Homo sapiens) [compound 397]	“++” (>20% = ++)
398 (SFEQVVNELF; listed as Homo sapiens) [compound 398]	“++” (>20% = ++)

Other lines, results leading:

Peptide exchange	Substance
“+++” (>50 = +++)	399 (RELLHLVTL; listed as Homo sapiens) [compound 399]
“+” (>10% = +)	400 (GEIEIHLL; listed as Homo sapiens) [compound 400]
“++” (>20% = ++)	402 (RELANDELIL; listed as Homo sapiens) [compound 402]
“++” (>20% = ++)	403 (EEAQWVRKY; listed as Homo sapiens) [compound 403]
“++” (>20% = ++)	404 (NEAIMHQY; listed as Homo sapiens) [compound 404]
“+” (>10% = +)	405 (NEIWTHSY; listed as Homo sapiens) [compound 405]
“+” (>10% = +)	406 (EDGRLVIEF; listed as Homo sapiens) [compound 406]
“++” (>20% = ++)	407 (AEHEGVSVL; listed as Homo sapiens) [compound 407]
“++” (>20% = ++)	408 (LEKALQVF; listed as Homo sapiens) [compound 408]
“+++” (>50 = +++)	409 (REFVLSKGDAGL; listed as Homo sapiens) [compound 409]
“+” (>10% = +)	410 (SEDPSKLEA; listed as Homo sapiens) [compound 410]
“+” (>10% = +)	411 (LELPPILVY; listed as Homo sapiens) [compound 411]
“++” (>20% = ++)	412 (QEILTQVKQ; listed as Homo sapiens) [compound 412]
“++” (>20% = ++)	413 (IEALSGKIEL; listed as Homo sapiens) [compound 413]
“++” (>20% = ++)	414 (EDAALFKAW; listed as Homo sapiens) [compound 414]
“+++” (>50 = +++)	415 (REEDAALFKAW; listed as Homo sapiens) [compound 415]
“+++” (>50 = +++)	416 (SEEETRVVF; listed as Homo sapiens) [compound 416]
“++” (>20% = ++)	417 (AEHFSMIRA; listed as Homo sapiens) [compound 417]
“+++” (>50 = +++)	418 (FEDAQGHIW; listed as Homo sapiens) [compound 418]
“++” (>20% = ++)	419 (HEFGHVLGL; listed as Homo sapiens) [compound 419]
“+” (>10% = +)	420 (FESHSTVSA; listed as Homo sapiens) [compound 420]
“++” (>20% = ++)	421 (GEPATTVSL; listed as Homo sapiens) [compound 421]
“+++” (>50 = +++)	422 (SETTFSLIF; listed as Homo sapiens) [compound 422]
“++” (>20% = ++)	423 (SEVPTGTTA; listed as Homo sapiens) [compound 423]
“+” (>10% = +)	424 (TEFPLFSAA; listed as Homo sapiens) [compound 424]
“+++” (>50 = +++)	425 (SEVPLPMAI; listed as Homo sapiens) [compound 425]
“+” (>10% = +)	426 (PEKTTHSF; listed as Homo sapiens) [compound 426]
“++” (>20% = ++)	427 (HESSSHHDL; listed as Homo sapiens) [compound 427]
